Test results reported in patent publication US12404345B2, “Humanized antibodies against iRHOM2” (SCIRHOM GMBH, priority 2021, dated 2025).

T1: mouse iRhom2 (Mus musculus, UniProt Q80WQ6)
T1 construct: MEF-DKO-miR2-FL-WT-T7 cells stably expressing mouse iRhom2 full length wild type; expressed in transfected cells; host or cells: immortalized iRhom1/2-/- DKO mouse embryonic fibroblasts, pMSCV retroviral infection
T1 sequence (Q80WQ6 1-827): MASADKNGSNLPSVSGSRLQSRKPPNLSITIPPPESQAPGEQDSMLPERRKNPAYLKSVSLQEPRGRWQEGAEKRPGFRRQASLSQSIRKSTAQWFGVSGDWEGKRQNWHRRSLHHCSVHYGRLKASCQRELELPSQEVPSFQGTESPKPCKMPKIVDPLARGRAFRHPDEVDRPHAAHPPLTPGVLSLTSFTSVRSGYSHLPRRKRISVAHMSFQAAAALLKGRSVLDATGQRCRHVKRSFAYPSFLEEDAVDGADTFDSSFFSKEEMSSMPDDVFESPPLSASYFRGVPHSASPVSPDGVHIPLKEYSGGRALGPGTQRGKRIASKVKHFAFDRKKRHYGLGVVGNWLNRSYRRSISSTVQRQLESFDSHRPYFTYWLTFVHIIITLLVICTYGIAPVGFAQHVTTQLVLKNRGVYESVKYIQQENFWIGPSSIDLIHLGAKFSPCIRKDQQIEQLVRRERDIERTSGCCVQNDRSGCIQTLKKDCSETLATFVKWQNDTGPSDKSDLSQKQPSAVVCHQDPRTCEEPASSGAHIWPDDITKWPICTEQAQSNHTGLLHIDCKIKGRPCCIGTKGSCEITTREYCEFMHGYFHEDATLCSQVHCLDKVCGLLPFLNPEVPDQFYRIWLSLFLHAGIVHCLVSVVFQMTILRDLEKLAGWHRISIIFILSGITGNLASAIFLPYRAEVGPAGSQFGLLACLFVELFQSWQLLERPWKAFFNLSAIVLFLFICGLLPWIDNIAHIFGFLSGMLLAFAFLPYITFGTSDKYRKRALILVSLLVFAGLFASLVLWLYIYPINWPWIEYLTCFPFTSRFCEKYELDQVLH


Molecular target: T1, mouse iRhom2
Experiment: FACS mouse cross-reactivity on MEF-DKO-miR2-FL-WT-T7 cells
Format: binding
Conditions: antibody at 3 μg/ml
Excerpt: Next, immortalized iRhom1/2−/− DKO MEFs were reconstituted with a tagged form of human iRhom2 to test target recognition of humanized antibodies of the invention. Additionally, iRhom1/2−/− DKO MEFs stably expressing a tagged form of mouse iRhom2 were generated in order to determine cross-reactivity of the humanized antibodies 16-B-03, 16-B-05, 16-B-07, 23-B-04, 42-B-02 and 42-B-04 of the invention with the mouse orthologue of iRhom2.
In brief, on day 1, Phoenix-ECO cells (American Type Culture Collection, USA) were seeded on 6-well tissue culture plates (Greiner, Germany) in standard growth medium at 8×10^5 cells per well and kept overnight at 37° C., 5% CO2. On day 2, the medium was replaced by fresh medium supplemented with chloroquine (Sigma-Aldrich, USA) at a final concentration of 25 μM. Applying the calcium phosphate method, cells were transfected with 2 μg/ml of pMSCV (Clontech, USA) empty vector, pMSCV-hiR2-FL-WT-T7 encoding human iRhom2 full length wild type C-terminally tagged with 3 consecutive copies of the T7 epitope (MASMTGGQQMG) or pMSCV-miR2-FL-WT-T7 encoding mouse iRhom2 full length wild type C-terminally tagged with 3 consecutive copies of the T7 epitope, and were kept at 37° C., 5% CO2. After 7 hours, the transfections were stopped by replacing cell supernatants with standard growth medium lacking chloroquine, and cells were incubated at 37° C., 5% CO2 to allow virus production overnight. In parallel, immortalized iRhom1/2−/− DKO MEFs as target cells for retroviral infection were seeded on 6-well tissue culture plates (Greiner, Germany) in standard growth medium at 1×10^5 cells per well and were also kept overnight at 37° C., 5% CO2. On day 3, the supernatants of Phoenix-ECO cells releasing pMSCV, pMSCV-hiR2-FL-WT-T7 or pMSCV-miR2-FL-WT-T7 ecotrophic virus were collected, filtered with 0.45 μm CA filters, and supplemented with 4 μg/ml of polybrene (Sigma-Aldrich, USA). Upon removal of medium from the immortalized iRhom1/2−/− DKO MEFs, the virus containing supernatants were added to the target cells for 4 hours at 37° C., 5% CO2 for first infection. Simultaneously, Phoenix-ECO cells were re-incubated with fresh medium, which, after another 4 hours, was filtered and used for the second infection of the respective target cell populations, again in the presence of 4 μg/ml of polybrene. Likewise, a third, but overnight infection cycle was performed. On day 4, virus containing cell supernatants were replaced by fresh standard growth medium. From day 5 onwards, cells were grown in the presence of 2 mg/ml of geneticin (G418, Thermo Fisher Scientific, USA) for the selection of immortalized MEF-DKO-EV control cells stably infected with pMSCV empty vector, MEF-DKO-hiR2-FL-WT-T7 cells stably expressing human iRhom2 full length wild type C-terminally tagged with 3 consecutive copies of the T7 epitope, and MEF-DKO-miR2-FL-WT-T7 cells stably expressing mouse iRhom2 full length wild type C-terminally tagged with 3 consecutive copies of the T7 epitope. Upon propagation, cells were stocked for future usage.
In brief, immortalized MEF-DKO-EV control cells, MEF-DKO-hiR2-FL-WT-T7 cells and MEF-DKO-miR2-FL-WT-T7 cells were harvested with 10 mM EDTA in PBS, washed and resuspended in FACS buffer (PBS, 3% FBS, 0.05% sodium azide), and seeded in Nunc U-bottom 96-well plates (Thermo Fisher Scientific, USA) at approximately 3×10^5 cells per well. To pellet cells and remove supernatants, the plates were centrifuged at 1,500 rpm and 4° C. for 3 minutes. For primary staining, cells were resuspended in 100 μl per well of either FACS buffer alone (controls), mouse monoclonal anti-T7 IgG (Merck Millipore, USA) at 3 μg/ml FACS buffer or the humanized antibodies 16-B-03, 16-B-05, 16-B-07, 23-B-04, 42-B-02 and 42-B-04 of the invention also at 3 μg/ml FACS buffer and incubated on ice for 1 hour. Afterwards, plates were centrifuged at 1,500 rpm and 4° C. for 3 minutes and washed twice with 200 μl per well of FACS buffer. […]

Molecule	binding to mouse iRhom2 on MEF-DKO-miR2-FL-WT-T7 cells (mouse cross-reactivity)
16-B-03: humanized antibody binding human iRhom2; HCVD SEQ ID NO 1, LCVD SEQ ID NO 5 (antibody, V domains shown, antibody sequences) VH: QVTLRESGPALVKPTQTLTLTCTFSGFSLSTFALGVGWIRQPPGKALEWLAHIWWDDDKYYNPALKSRLTISKDTSKNQVVLTITNMDPVDTATYYCARITTYYYGMDYWGQGTLVTVSS VL: EIVMTQSPDFQSVTPKEKVTITCRASQSIGNHLHWYQQKPDASPKLLIKYASQSISGVPSRFSGSGSGTDFTLTINSLEAEDAATYFCQQSYQWPLTFGQGTKLEIK	no significant binding
16-B-05: humanized antibody binding human iRhom2; HCVD SEQ ID NO 9, LCVD SEQ ID NO 13 (antibody, V domains shown, antibody sequences) VH: QVTLRESGPALVKPTQTLTLTCTFSGFSLSTFALGVGWIRQPPGKALEWLAHIWWDEDKYYNPALKSRLTISKDTSKNQVVLTITNMDPVDTATYYCARITTYYYGMDYWGQGTLVTVSS VL: EIVMTQSPDFQSVTPKEKVTITCRASQSIGNHLHWYQQKPDASPKLLIKYASQSISGVPSRFSGSGSGTDFTLTINSLEAEDAATYFCQQSYNWPLTFGQGTKLEIK	none of these humanized antibodies of the invention are cross-reactive
16-B-07: humanized antibody binding human iRhom2; HCVD SEQ ID NO 17, LCVD SEQ ID NO 21 (antibody, V domains shown, antibody sequences) VH: QVTLRESGPALVKPTQTLTLTCTFSGFSLSTFALGVGWIRQPPGKALEWLAHIWWDEDKYYNPALKSRLTISKDTSKNQVVLTITNMDPVDTATYYCARITTYYYGMDYWGQGTLVTVSS VL: EIVMTQSPDFQSVTPKEKVTITCRASQSIGNHLHWYQQKPDASPKLLIKYASQSISGVPSRFSGSGSGTDFTLTINSLEAEDAATYFCQQSYQWPLTFGQGTKLEIK	none of these humanized antibodies of the invention are cross-reactive
23-B-04: humanized antibody binding human iRhom2; HCVD SEQ ID NO 25, LCVD SEQ ID NO 29 (antibody, V domains shown, antibody sequences) VH: QVTLRESGPALVKPTQTLTLTCTFSGFSLSTFGMGVGWIRQPPGKALEWLAHIWWDDEKYYNSALKSRLTISKDTSKNQVVLTITNMDPVDTATYYCARISNYGSNYWYFNVWGQGTLVTVSS VL: AIQLTQSPSSLSASVGDRVTITCRASSSVSYMYWYQQKPGKAPKVLIYDTSNLASGVPSRFSGSGSGTDYTLTISSLQPEDFATYYCQQWNAYPLTFGQGTKLEIK	none of these humanized antibodies of the invention are cross-reactive
42-B-04: humanized antibody binding human iRhom2; HCVD SEQ ID NO 41, LCVD SEQ ID NO 45 (antibody, V domains shown, antibody sequences) VH: QVTLRESGPALVKPTQTLTLTCTFSGFSLSTFGRGVGWIRQPPGKALEWLAHIWWDDEKYYNSALKSRLTISKDTSKNQVVLTITNMDPVDTATYYCARIQNYGSNYWYFDVWGQGTLVTVSS VL: AIQLTQSPSSLSASVGDRVTITCRASSRISYMFWYQQKPGKAPKVLIYDTSNLASGVPSRFSGSGSGTDYTLTISSLQPEDFATYYCQQWNAYPLTFGQGTKLEIK	none of these humanized antibodies of the invention are cross-reactive
42-B-02: humanized antibody binding human iRhom2; HCVD SEQ ID NO 33, LCVD SEQ ID NO 37 (antibody, V domains shown, antibody sequences) VH: QVTLRESGPALVKPTQTLTLTCTFSGFSLSTFGRGVGWIRQPPGKALEWLAHIWWDDEKYYNSALKSRLTISKDTSKNQVVLTITNMDPVDTATYYCARIQNYGSNYWYFDVWGQGTLVTVSS VL: AIQLTQSPSSLSASVGDRVTITCRASSRISYMFWYQQKPGKAPKVLIYDTSNLASGVPSRFSGSGSGTDYTLTISSLQPEDFATYYCQQWNSYPLTFGQGTKLEIK	none of these humanized antibodies of the invention are cross-reactive
